Data as given in a protein production outcome set (Wang et al. 2014).

Assay: label from the status in PepcDB records

Row | Sequence | protein production
1 | MPKMIMVNKKASESQVMELEKRNYNNPVVLCGFAGSTPTGVLAASYIVETLGMHQVAHLISQHIPPVAVFVGGKLRHPFRIYANNSNTVLVAMCEVPISSAHIYEISNTLMNWIDQVGASEIVIMEGSPANGIPEERPVFAVAEKPKLDKFKKAGIQPADSAIIAGMGGGILNECLVRKITGLSFITPTSVDIPDPGAVLSIIEAINKAYNLKIKTDLLEEQVKALDEQIKKIEEQYKELQEKQKEPQSMYG | not failed
2 | MPKNDLLLRSLRGEPIGRFPVWLMRQAGRYMPEYRKIRNRVKNFLELCKNVDLATEISLLPLKILGVDAIIIFSDILVPLEPLGVKVEFVEGEGPKLSWSGKVSDLKKYDPSQNAYVYEIIKRVKEAQDEVPVIGFAGAPFTLLSYLIEGGASKDFKSTKLFMWENPKEYKRLMDILTETVLAYLKEQIKAGADVVQIFDSWVNNLSLEDYGEYVYPYVNYLISELKDFSDTPVIYFFRGSSSFIDLAVDYRADALSVDWSVDIPELFKIYDKGFQGNLEPAVLYASEEVIEEKTLGLLRRIPVKTRYVFNLGHGLAPDMELEKVKYLVDLVKSFPLT | not failed
3 | MPKQTGNARNPFVLLALFILVCSGGCATYPISHDKAVPVARGALFEYPYFHDQVTGIAVSGQGRIFVNFPRWDKDPLYSVAEVLPDGSLRPYPDHGWNRWGADETAHPEAHFICVQSVFVDHSDFLWILDPASPAFNGVVPGGAKLVKVNLKTDQVERVIPFAPSAAPHESYLNDVRIDPEGNFAFITDSGKGAIVVVDLESGKARRLLSGHPSTKAEPGYVPVIEGKELRNEDGTVPKIHADGIALDSRGEYLYYHALVGRTLYRIRTSFLKDPSLPEKDLENHVERIAETGAADGMLMDAQDNLYLTALEENAVKRYRPSEPTLNTIIQGGLHWPDSLAISPDNYLYVTDSQINLAPRFNHGKDLRIIPYKFFKTWLMPFSHDGLLPP | failed
4 | MPKRRGHGEGTVYQRPDGRWTAQITVGIDHEGKQRRLTLYGKSKKEVLEKLTQALYQQQNGGFIEPSKITVEQWLNRWLTDYAKPHLRQSTWESYETVLRLHVIPTLGSIPLKKLQPADIQRLYASKLESGLSPTRVRYIHVVLHEAMSQARESGLLLQNPTEAAKPPRHPKKKVQPLNPEQVKRFLETAKQDPLYPAFLLALGTGLRRGEILGLRWQDLDLQKGILQVRQSLIRTREGLKFEEPKTEKSRRQIPLPPSVVAALKRHKAWVNQNKLILGPDYEDHDLVFPVENGRPRDPKGFAEYFNRLLDKAGLPHIRLHDLRHTHATLLLLEGVHPKVVQERLGHSTVSITLDIYSHILPGLQEKAAERIDGLLQPKENPSPKEGTIK | failed
5 | MPKSKEMEEEMKENSQDKNFMYKLAEFIVDKRNLFFLIYIIALVFCIFSRNWVKVENDVTKYLPDSTETRQGLTVMNDQFVTYGTAQVLLANISYDRAQEAADMIEDINGVTSVTFDNTEDHYKGTSALLDVTFDGEEEDQISIDAMNEIKDKLTGYDVYYSTSVANDDSANLESEMQVVTAIAAVIIVVVLLLTSKSYAEVPVLLITFIAAALLNMGTNFLLGTISFISNSVTIVLQLALAIDYAIILCHRYTEERENLPAREATITALSKAIPEISSSSLTTVSGLLALAFMQFKIGEDLAVVLIKAIILSLISVFTLMPGLIMVFSKWMDKTVHKNLIPSISAVGKFAIKTKYIIPPIFAAVIIVACVFANMCPYCFSTGSTSTPRKSESTIAQEKIDSTFGSRNMIALVVPAGNYEAEKNLLADLDACDEVKSTQGLANTEAMDGYMLTDSLTPREFSELVGLDYEVAQLLYSAYAINQENYGEVINSSSKYSVPLIDMFEFLLDEIDKGYVTLEGDLKDQMDDLSGQLDKALLQLKTDDYSRLVVYLNLPEEGDETFAFLDRVHEMMAKYYTDNYYVVGNSTSDYDLSSSFSRDNLVISILSALFVIIILLFTFKSAGLPVLLILVIQGSIWINFSFPYLMDSPLYFLGYLVVNSIQMGANIDYAIVISSRYDDLKKQLPIKEAIIETLNQAFPTIITSGSILAAAGILISFLSTNGVISAIGTCLGRGTIISIILVMGVLPQILYLGDVIIEKTRFSINTDNLIQNTGGTMVINGRMRGYVSGIIDAEIHGVIKGEVKGQIDVNNIDVIKKEEPEDGGDGNEEA | failed
